Results published in US20240002497A1 (Merck Sharp & Dohme, published 2024).

Experiments:
huNav1.7α + β1 (HEKa/β1) = biological target: T1, huNav1.7α + β1 (HEKa/β1) (human, UniProt Q15858 1-1988; Q07699 19-218); assay: binding FACS, HEKa/β1 cells
T1 construct: also called HEKa/β1 huNav1.7α
Procedure: (§1) Binding of the ISVDs to cell-expressed Nav1.7α was detected via murine anti-Flag (Sigma, catalog #F1804). Briefly, cells were resuspended in FACS buffer (PBS, 10% FBS, NaN₃) and transferred to a 96-well V-bottom plate at 1×10^5 cells/well. Purified FLAG3-tagged ISVD was diluted in FACS buffer and added to the cells for 30 minutes at 4° C. […] Prior to the read-out, the samples were resuspended in 1 μg/mL propidium iodide (Sigma, catalog #P4170) to exclude dead cells. Between each step, the cells were centrifuged for 5 minutes at 200 grams and washed with 100 μL/well FACS buffer.

huNav1.7α + β1-β2-β3 = biological target: T2, huNav1.7α + β1-β2-β3 (human, UniProt Q15858 1-1988; A5A6L6 19-218; O60939 30-215; Q2KI11 23-215); assay: binding FACS, CHO FlpIn cells
T2 construct: Cell line (CHO FlpIn, HEK FlpIn, transient HEK293T) is named under assay; also called huNav1.7-beta1-beta2-beta3; human Nav1.7α with Navβ1, Navβ2 and Navβ3
In short: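 Assessment used purified FLAG3-tagged ISVD incubated on cells for 30 minutes at 4° C in PBS containing 10% FBS and NaN₃, with cells washed between steps. Propidium iodide (1 μg/mL) staining removed dead cells from analysis.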

huNav1.7α+β1 = biological target: T3, huNav1.7α+β1 (human, UniProt Q15858 1-1988; Q07699 19-218); assay: binding FACS, HEKa/β1 cells
T3 construct: also called huNav1.7-beta1; HEKa/β1
Procedure: as §1

Binder | EC50 (huNav1.7α + β1 (HEKa/β1)) | EC50 (huNav1.7α + β1-β2-β3) | Bmax relative to '535 (huNav1.7α+β1) | EC50 (huNav1.7α+β1)
F010301594 (VHH, R100aK vs F0103362B08 (Kabat)) VHH: EVQLVESGGGLVQAGGSLRLSCAASVRPFSTSAMGWFRQAPEKEREAVAGILWNGIVTYYADSVKGRFTISRDNAKNEVYLQMNKLKPEDTAVYYCALDRDYGGKSFSAYEYEYWGQGTLVTVSS | 29 nM | 110 nM | – | –
F010301609 (VHH, Y100fQ vs F0103362B08 (Kabat)) VHH: EVQLVESGGGLVQAGGSLRLSCAASVRPFSTSAMGWFRQAPEKEREAVAGILWNGIVTYYADSVKGRFTISRDNAKNEVYLQMNKLKPEDTAVYYCALDRDYGGRSFSAQEYEYWGQGTLVTVSS | 37 nM | 190 nM | – | –
F010301585 (VHH, V56P vs F0103362B08 (Kabat)) VHH: EVQLVESGGGLVQAGGSLRLSCAASVRPFSTSAMGWFRQAPEKEREAVAGILWNGIPTYYADSVKGRFTISRDNAKNEVYLQMNKLKPEDTAVYYCALDRDYGGRSFSAYEYEYWGQGTLVTVSS | 53 nM | 110 nM | – | –
F010301606 (VHH, Y100fK vs F0103362B08 (Kabat)) VHH: EVQLVESGGGLVQAGGSLRLSCAASVRPFSTSAMGWFRQAPEKEREAVAGILWNGIVTYYADSVKGRFTISRDNAKNEVYLQMNKLKPEDTAVYYCALDRDYGGRSFSAKEYEYWGQGTLVTVSS | 24 nM | 65 nM | – | –
F010301604 (VHH, R100aQ vs F0103362B08 (Kabat)) VHH: EVQLVESGGGLVQAGGSLRLSCAASVRPFSTSAMGWFRQAPEKEREAVAGILWNGIVTYYADSVKGRFTISRDNAKNEVYLQMNKLKPEDTAVYYCALDRDYGGQSFSAYEYEYWGQGTLVTVSS | 52 nM | 190 nM | – | –
F010301595 (VHH, D97A vs F0103362B08 (Kabat)) VHH: EVQLVESGGGLVQAGGSLRLSCAASVRPFSTSAMGWFRQAPEKEREAVAGILWNGIVTYYADSVKGRFTISRDNAKNEVYLQMNKLKPEDTAVYYCALDRAYGGRSFSAYEYEYWGQGTLVTVSS | 17 nM | 62 nM | – | –
F010301593 (VHH, R96K vs F0103362B08 (Kabat)) VHH: EVQLVESGGGLVQAGGSLRLSCAASVRPFSTSAMGWFRQAPEKEREAVAGILWNGIVTYYADSVKGRFTISRDNAKNEVYLQMNKLKPEDTAVYYCALDKDYGGRSFSAYEYEYWGQGTLVTVSS | 40 nM | 110 nM | – | –
F010301612 (VHH, Y100fT vs F0103362B08 (Kabat)) VHH: EVQLVESGGGLVQAGGSLRLSCAASVRPFSTSAMGWFRQAPEKEREAVAGILWNGIVTYYADSVKGRFTISRDNAKNEVYLQMNKLKPEDTAVYYCALDRDYGGRSFSATEYEYWGQGTLVTVSS | 44 nM | 170 nM | – | –
F010301596 (VHH, G99A vs F0103362B08 (Kabat)) VHH: EVQLVESGGGLVQAGGSLRLSCAASVRPFSTSAMGWFRQAPEKEREAVAGILWNGIVTYYADSVKGRFTISRDNAKNEVYLQMNKLKPEDTAVYYCALDRDYAGRSFSAYEYEYWGQGTLVTVSS | 50 nM | 140 nM | – | –
F010301126 (VHH, vs F0103265A11: A31R, T57V, N58T, V60N) VHH: EVQLVESGGGLVQPGGSLRLSCAASGMLFNRNTQGWYRQAPGKQRELVAFIFSGGYVTYNDSVKGRFTISRDNAKRTMYLQMNSLKPEDSAIYYCSLSRYLGQGTLVTVSS | – | – | 118% | 5.6 nM
F010301188 (VHH, vs F0103265A11: A31R, V60N, L103Q) VHH: EVQLVESGGGLVQPGGSLRLSCAASGMLFNRNTQGWYRQAPGKQRELVAFIFSGGYTNYNDSVKGRFTISRDNAKRTMYLQMNSLKPEDSAIYYCSLSRYQGQGTLVTVSS | – | – | 104% | 5.1 nM
F010301138 (VHH, vs F0103265A11: N30Y, V60N, S93A, L103Q) VHH: EVQLVESGGGLVQPGGSLRLSCAASGMLFYANTQGWYRQAPGKQRELVAFIFSGGYTNYNDSVKGRFTISRDNAKRTMYLQMNSLKPEDSAIYYCALSRYQGQGTLVTVSS | – | – | 107% | 9.7 nM

Now from value to binder:

EC50 (huNav1.7α + β1 (HEKa/β1)) | EC50 (huNav1.7α + β1-β2-β3) | Bmax relative to '535 (huNav1.7α+β1) | EC50 (huNav1.7α+β1) | Binder
24 nM | 110 nM | – | – | F010301567 (VHH, F29Y vs F0103362B08 (Kabat)) VHH: EVQLVESGGGLVQAGGSLRLSCAASVRPYSTSAMGWFRQAPEKEREAVAGILWNGIVTYYADSVKGRFTISRDNAKNEVYLQMNKLKPEDTAVYYCALDRDYGGRSFSAYEYEYWGQGTLVTVSS
110 nM | 310 nM | – | – | F010301568 (VHH, G35T vs F0103362B08 (Kabat)) VHH: EVQLVESGGGLVQAGGSLRLSCAASVRPFSTSAMTWFRQAPEKEREAVAGILWNGIVTYYADSVKGRFTISRDNAKNEVYLQMNKLKPEDTAVYYCALDRDYGGRSFSAYEYEYWGQGTLVTVSS
30 nM | 90 nM | – | – | F010301607 (VHH, Y100fA vs F0103362B08 (Kabat)) VHH: EVQLVESGGGLVQAGGSLRLSCAASVRPFSTSAMGWFRQAPEKEREAVAGILWNGIVTYYADSVKGRFTISRDNAKNEVYLQMNKLKPEDTAVYYCALDRDYGGRSFSAAEYEYWGQGTLVTVSS
36 nM | 130 nM | – | – | F010301579 (VHH, R27K vs F0103362B08 (Kabat)) VHH: EVQLVESGGGLVQAGGSLRLSCAASVKPFSTSAMGWFRQAPEKEREAVAGILWNGIVTYYADSVKGRFTISRDNAKNEVYLQMNKLKPEDTAVYYCALDRDYGGRSFSAYEYEYWGQGTLVTVSS
51 nM | 170 nM | – | – | F010301586 (VHH, W52aA vs F0103362B08 (Kabat)) VHH: EVQLVESGGGLVQAGGSLRLSCAASVRPFSTSAMGWFRQAPEKEREAVAGILANGIVTYYADSVKGRFTISRDNAKNEVYLQMNKLKPEDTAVYYCALDRDYGGRSFSAYEYEYWGQGTLVTVSS
42 nM | 110 nM | – | – | F010301584 (VHH, W52aT vs F0103362B08 (Kabat)) VHH: EVQLVESGGGLVQAGGSLRLSCAASVRPFSTSAMGWFRQAPEKEREAVAGILTNGIVTYYADSVKGRFTISRDNAKNEVYLQMNKLKPEDTAVYYCALDRDYGGRSFSAYEYEYWGQGTLVTVSS
67 nM | 200 nM | – | – | F010301592 (VHH, R100aS vs F0103362B08 (Kabat)) VHH: EVQLVESGGGLVQAGGSLRLSCAASVRPFSTSAMGWFRQAPEKEREAVAGILWNGIVTYYADSVKGRFTISRDNAKNEVYLQMNKLKPEDTAVYYCALDRDYGGSSFSAYEYEYWGQGTLVTVSS
35 nM | 180 nM | – | – | F010301580 (VHH, R27T vs F0103362B08 (Kabat)) VHH: EVQLVESGGGLVQAGGSLRLSCAASVTPFSTSAMGWFRQAPEKEREAVAGILWNGIVTYYADSVKGRFTISRDNAKNEVYLQMNKLKPEDTAVYYCALDRDYGGRSFSAYEYEYWGQGTLVTVSS
41 nM | 120 nM | – | – | F010301589 (VHH, I55P vs F0103362B08 (Kabat)) VHH: EVQLVESGGGLVQAGGSLRLSCAASVRPFSTSAMGWFRQAPEKEREAVAGILWNGPVTYYADSVKGRFTISRDNAKNEVYLQMNKLKPEDTAVYYCALDRDYGGRSFSAYEYEYWGQGTLVTVSS
43 nM | 93 nM | – | – | F010301591 (VHH, G99K vs F0103362B08 (Kabat)) VHH: EVQLVESGGGLVQAGGSLRLSCAASVRPFSTSAMGWFRQAPEKEREAVAGILWNGIVTYYADSVKGRFTISRDNAKNEVYLQMNKLKPEDTAVYYCALDRDYKGRSFSAYEYEYWGQGTLVTVSS
29 nM | 100 nM | – | – | F010301574 (VHH, G35A vs F0103362B08 (Kabat)) VHH: EVQLVESGGGLVQAGGSLRLSCAASVRPFSTSAMAWFRQAPEKEREAVAGILWNGIVTYYADSVKGRFTISRDNAKNEVYLQMNKLKPEDTAVYYCALDRDYGGRSFSAYEYEYWGQGTLVTVSS
30 nM | 120 nM | – | – | F010301578 (VHH, S30G vs F0103362B08 (Kabat)) VHH: EVQLVESGGGLVQAGGSLRLSCAASVRPFGTSAMGWFRQAPEKEREAVAGILWNGIVTYYADSVKGRFTISRDNAKNEVYLQMNKLKPEDTAVYYCALDRDYGGRSFSAYEYEYWGQGTLVTVSS
29 nM | 89 nM | – | – | F010301598 (VHH, G99Q vs F0103362B08 (Kabat)) VHH: EVQLVESGGGLVQAGGSLRLSCAASVRPFSTSAMGWFRQAPEKEREAVAGILWNGIVTYYADSVKGRFTISRDNAKNEVYLQMNKLKPEDTAVYYCALDRDYQGRSFSAYEYEYWGQGTLVTVSS
– | – | 112% | 9.3 nM | F010301232 (VHH, vs F0103265A11: A31R, N58T, S93A, L103Q) VHH: EVQLVESGGGLVQPGGSLRLSCAASGMLFNRNTQGWYRQAPGKQRELVAFIFSGGYTTYVDSVKGRFTISRDNAKRTMYLQMNSLKPEDSAIYYCALSRYQGQGTLVTVSS
– | – | 117% | 4.7 nM | F010301139 (VHH, vs F0103265A11: A31R, I51W, T57V, V60N, L103Q) VHH: EVQLVESGGGLVQPGGSLRLSCAASGMLFNRNTQGWYRQAPGKQRELVAFWFSGGYVNYNDSVKGRFTISRDNAKRTMYLQMNSLKPEDSAIYYCSLSRYQGQGTLVTVSS
– | – | 111% | 5.4 nM | F010301175 (VHH, vs F0103265A11: A31R, N58T) VHH: EVQLVESGGGLVQPGGSLRLSCAASGMLFNRNTQGWYRQAPGKQRELVAFIFSGGYTTYVDSVKGRFTISRDNAKRTMYLQMNSLKPEDSAIYYCSLSRYLGQGTLVTVSS
